Assay results: the supplement of paper PMC10065799, “High-throughput profiling of sequence recognition by tyrosine kinases and SH2 domains using bacterial peptide display” (eLife, 2023)

Biological target: Fyn (UniProt P06241)
Assay: phosphorylation enrichment, bacterial display (enrichment ratio); higher = better substrate or ligand; peptides without Tyr show the background
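Also: 11-residue human phosphosite peptides and single-mutation variants displayed on the E. coli surface, counted by deep sequencing, each peptide's frequency after selection divided by its frequency in the unselected input library; frequency after pTyr selection over input frequency; kinase dosed for 20-30% of maximal phosphorylation in three min.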

Chain of Fyn (P06241 whole entry, looked up): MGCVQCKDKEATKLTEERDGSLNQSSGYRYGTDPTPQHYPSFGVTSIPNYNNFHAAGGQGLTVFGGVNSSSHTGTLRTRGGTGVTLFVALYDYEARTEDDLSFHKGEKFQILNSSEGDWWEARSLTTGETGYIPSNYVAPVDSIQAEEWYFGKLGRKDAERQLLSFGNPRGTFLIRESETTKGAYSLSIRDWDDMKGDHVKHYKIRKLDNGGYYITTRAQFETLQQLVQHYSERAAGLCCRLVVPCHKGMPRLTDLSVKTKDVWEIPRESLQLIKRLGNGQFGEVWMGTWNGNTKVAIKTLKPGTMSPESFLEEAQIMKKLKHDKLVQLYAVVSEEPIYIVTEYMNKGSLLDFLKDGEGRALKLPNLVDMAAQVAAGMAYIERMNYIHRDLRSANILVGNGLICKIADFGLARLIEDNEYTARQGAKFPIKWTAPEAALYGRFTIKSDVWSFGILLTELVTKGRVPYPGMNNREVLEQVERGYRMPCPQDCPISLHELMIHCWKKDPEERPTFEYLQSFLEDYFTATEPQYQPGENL

First: WKKKIYEESST [MOCS2_Y170_E168K]
Second: INASGYRVGPA [ACSM1_Y477_I479V]
The phosphorylation enrichment of the first is higher: 0.534 for the first, 0.411 for the second.

First: ALTRSYVREKV [CYP2C8_Y243_I244V]
Second: GEVLVYVEDPA [FLNA_Y319]
The phosphorylation enrichment of the first is lower: 0.387 for the first, 0.529 for the second.

First: LSAPWYLNRIS [HEXA_Y421]
Second: QELRRYLKSGV [MICA_Y194]
The phosphorylation enrichment of the first is lower: 0.371 for the first, 0.553 for the second.

Compared with DTFDPYLDVAL [USP36_Y268_YF], AAYNRYDQERF [CDC73_Y293] is lower in phosphorylation enrichment: 0.704 for the first, 0.457 for the second.

First: KHTLSYVDVGT [SDHA_Y629]
Second: TDTAAYEERLR [SPTB_Y474_V478L]
The phosphorylation enrichment of the first is lower: 0.348 for the first, 0.67 for the second.

Going from SMGHRYIEVFK [HNRNPF_Y82] to ASQEEYSAMRD [KRAS_Y64_G60S], the phosphorylation enrichment rises from 0.354 to 0.487.

Going from NSNAAYEESHF [LRIF1_Y714_Q716E] to EEQFFYEKAIL [BCCIP_Y257_E254Q], the phosphorylation enrichment rises from 0.434 to 0.466.

Compared with EQMLEYMGQLQ [CFAP45_Y289_E291G], PFRQWYESHFA [RPS8_Y113_YF] is higher in phosphorylation enrichment: 0.542 for the first, 0.586 for the second.

First: AGQEGYDRLRP [RAC1_Y64_D63G]
Second: VTAALYGRLFE [BTD_Y536_YF]
The phosphorylation enrichment of the first is lower: 0.34 for the first, 6.32 for the second.

Going from GGQVFHNSEYG [FLT4_Y1333_Y1333H] to SMEMKYLEEKN [ZAP70_Y451_G448E], the phosphorylation enrichment rises from 0.362 to 0.706.

First: ITNLLYHVVSW [GBA_Y412_G416S]
Second: SGFESYGSSSS [RPA2_Y9_Y14S]
The phosphorylation enrichment of the first is higher: 3.23 for the first, 0.453 for the second.

First: LGSWTYTKTVS [ROS1_Y144]
Second: CTSIHYNFMCN [TP53_Y234_T231S_YF]
The phosphorylation enrichment of the first is higher: 0.86 for the first, 0.516 for the second.

First: LEEFQYIGESQ [MSH2_Y856]
Second: MTRDIYETDYY [INSR_Y1185]
The phosphorylation enrichment of the first is lower: 0.722 for the first, 1.63 for the second.

First: MANYVYKAGPS [MAML2_Y515_M514V]
Second: FLQTDYTSQVS [FRMPD1_Y846]
The phosphorylation enrichment of the first is higher: 0.451 for the first, 0.404 for the second.

Compared with HPWPQYTTRAP [FNDC1_Y1281], MCDSHYLESRF [CLK1_Y56_S61F] is lower in phosphorylation enrichment: 0.554 for the first, 0.472 for the second.

Compared with FGGLRCGFGVL [KRTAP20-2_Y13_Y13C_YF], NVADHYGVFKP [ATP6V0D2_Y271_YF] is higher in phosphorylation enrichment: 0.349 for the first, 4.49 for the second.

Sequence DAVCFYRMENA [NPHS2_Y195_I192V_YF] has a phosphorylation enrichment of 0.986.

Biological target: EPHB2 (UniProt P29323)
Sequence (P29323 whole entry, looked up): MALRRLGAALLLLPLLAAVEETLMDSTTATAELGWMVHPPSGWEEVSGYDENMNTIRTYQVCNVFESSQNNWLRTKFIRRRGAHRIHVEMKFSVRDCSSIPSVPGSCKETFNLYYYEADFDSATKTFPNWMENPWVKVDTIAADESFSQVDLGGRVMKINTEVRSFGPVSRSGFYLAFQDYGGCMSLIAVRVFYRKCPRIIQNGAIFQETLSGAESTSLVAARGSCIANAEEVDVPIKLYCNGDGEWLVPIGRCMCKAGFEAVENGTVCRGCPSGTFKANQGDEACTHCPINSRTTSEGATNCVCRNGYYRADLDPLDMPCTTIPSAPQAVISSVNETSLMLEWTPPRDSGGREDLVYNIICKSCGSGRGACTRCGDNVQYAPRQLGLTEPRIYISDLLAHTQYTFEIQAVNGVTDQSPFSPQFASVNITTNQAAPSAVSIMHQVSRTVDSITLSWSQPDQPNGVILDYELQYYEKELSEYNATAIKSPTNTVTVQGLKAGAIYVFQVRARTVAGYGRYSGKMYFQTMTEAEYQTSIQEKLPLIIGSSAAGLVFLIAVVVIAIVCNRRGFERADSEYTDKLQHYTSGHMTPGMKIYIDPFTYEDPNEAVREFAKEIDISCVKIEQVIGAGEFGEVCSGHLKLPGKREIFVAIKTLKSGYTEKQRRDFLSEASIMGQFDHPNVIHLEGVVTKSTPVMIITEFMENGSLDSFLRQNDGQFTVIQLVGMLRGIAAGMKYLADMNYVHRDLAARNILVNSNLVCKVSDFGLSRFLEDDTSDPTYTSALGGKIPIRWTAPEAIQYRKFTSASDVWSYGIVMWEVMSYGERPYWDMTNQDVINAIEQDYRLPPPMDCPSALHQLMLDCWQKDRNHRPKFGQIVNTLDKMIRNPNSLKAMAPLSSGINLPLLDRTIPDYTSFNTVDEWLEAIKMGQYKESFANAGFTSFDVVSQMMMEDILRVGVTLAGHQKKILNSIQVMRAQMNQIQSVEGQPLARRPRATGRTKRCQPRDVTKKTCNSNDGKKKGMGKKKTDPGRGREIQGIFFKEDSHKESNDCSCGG
Assay: as above

Compared with WKKKIYEESST [MOCS2_Y170_E168K], INASGYRVGPA [ACSM1_Y477_I479V] is lower in phosphorylation enrichment: 0.526 for the first, 0.485 for the second.

First: ALTRSYVREKV [CYP2C8_Y243_I244V]
Second: GEVLVYVEDPA [FLNA_Y319]
The phosphorylation enrichment of the first is lower: 0.462 for the first, 0.728 for the second.

Going from LSAPWYLNRIS [HEXA_Y421] to QELRRYLKSGV [MICA_Y194], the phosphorylation enrichment rises from 0.511 to 0.875.

Going from DTFDPYLDVAL [USP36_Y268_YF] to AAYNRYDQERF [CDC73_Y293], the phosphorylation enrichment falls from 0.622 to 0.463.

Compared with KHTLSYVDVGT [SDHA_Y629], TDTAAYEERLR [SPTB_Y474_V478L] is higher in phosphorylation enrichment: 0.42 for the first, 0.648 for the second.

First: SMGHRYIEVFK [HNRNPF_Y82]
Second: ASQEEYSAMRD [KRAS_Y64_G60S]
The phosphorylation enrichment of the first is lower: 0.38 for the first, 0.58 for the second.

Compared with NSNAAYEESHF [LRIF1_Y714_Q716E], EEQFFYEKAIL [BCCIP_Y257_E254Q] is lower in phosphorylation enrichment: 0.499 for the first, 0.48 for the second.

First: EQMLEYMGQLQ [CFAP45_Y289_E291G]
Second: PFRQWYESHFA [RPS8_Y113_YF]
The phosphorylation enrichment of the first is lower: 0.493 for the first, 0.786 for the second.

First: AGQEGYDRLRP [RAC1_Y64_D63G]
Second: VTAALYGRLFE [BTD_Y536_YF]
The phosphorylation enrichment of the first is lower: 0.596 for the first, 0.656 for the second.

Going from GGQVFHNSEYG [FLT4_Y1333_Y1333H] to SMEMKYLEEKN [ZAP70_Y451_G448E], the phosphorylation enrichment rises from 0.431 to 0.659.

Going from ITNLLYHVVSW [GBA_Y412_G416S] to SGFESYGSSSS [RPA2_Y9_Y14S], the phosphorylation enrichment falls from 5.99 to 0.617.

Going from LGSWTYTKTVS [ROS1_Y144] to CTSIHYNFMCN [TP53_Y234_T231S_YF], the phosphorylation enrichment falls from 1.04 to 0.502.

First: LEEFQYIGESQ [MSH2_Y856]
Second: MTRDIYETDYY [INSR_Y1185]
The phosphorylation enrichment of the first is lower: 1.19 for the first, 1.34 for the second.

Compared with MANYVYKAGPS [MAML2_Y515_M514V], FLQTDYTSQVS [FRMPD1_Y846] is lower in phosphorylation enrichment: 0.455 for the first, 0.44 for the second.

First: HPWPQYTTRAP [FNDC1_Y1281]
Second: MCDSHYLESRF [CLK1_Y56_S61F]
The phosphorylation enrichment of the first is higher: 0.594 for the first, 0.568 for the second.

First: FGGLRCGFGVL [KRTAP20-2_Y13_Y13C_YF]
Second: NVADHYGVFKP [ATP6V0D2_Y271_YF]
The phosphorylation enrichment of the first is higher: 0.537 for the first, 0.441 for the second.

In the case of DAVCFYRMENA [NPHS2_Y195_I192V_YF], the phosphorylation enrichment is reported as 0.685.

Biological target: EPHB1 (UniProt P54762)
Sequence (P54762 whole entry, looked up): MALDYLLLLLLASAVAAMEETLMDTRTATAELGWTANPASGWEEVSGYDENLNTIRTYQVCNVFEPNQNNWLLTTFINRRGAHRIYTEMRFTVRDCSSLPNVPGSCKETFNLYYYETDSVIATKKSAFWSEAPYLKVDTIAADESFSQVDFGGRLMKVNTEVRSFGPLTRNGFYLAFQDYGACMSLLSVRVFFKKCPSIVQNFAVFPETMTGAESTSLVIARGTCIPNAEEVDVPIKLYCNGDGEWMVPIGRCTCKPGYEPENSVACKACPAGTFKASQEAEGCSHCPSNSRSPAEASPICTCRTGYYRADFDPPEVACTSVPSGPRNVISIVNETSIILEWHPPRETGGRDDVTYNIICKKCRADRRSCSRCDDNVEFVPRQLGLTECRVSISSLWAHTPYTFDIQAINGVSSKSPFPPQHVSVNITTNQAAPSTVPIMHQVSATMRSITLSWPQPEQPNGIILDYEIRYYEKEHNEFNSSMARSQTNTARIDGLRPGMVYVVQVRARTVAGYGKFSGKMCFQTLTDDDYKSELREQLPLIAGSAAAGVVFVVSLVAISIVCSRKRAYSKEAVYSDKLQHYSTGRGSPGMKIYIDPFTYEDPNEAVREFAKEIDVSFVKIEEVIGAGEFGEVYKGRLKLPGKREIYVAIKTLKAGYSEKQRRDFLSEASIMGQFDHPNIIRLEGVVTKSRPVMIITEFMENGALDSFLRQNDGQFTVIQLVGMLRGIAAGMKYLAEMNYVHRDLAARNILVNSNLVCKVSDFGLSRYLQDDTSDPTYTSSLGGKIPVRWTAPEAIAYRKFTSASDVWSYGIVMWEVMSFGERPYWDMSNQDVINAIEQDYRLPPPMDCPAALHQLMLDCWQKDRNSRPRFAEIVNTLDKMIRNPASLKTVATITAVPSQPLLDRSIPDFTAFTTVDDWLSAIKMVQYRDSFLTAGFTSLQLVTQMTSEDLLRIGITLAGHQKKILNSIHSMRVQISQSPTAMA
Assay: as above

First: WKKKIYEESST [MOCS2_Y170_E168K]
Second: INASGYRVGPA [ACSM1_Y477_I479V]
The phosphorylation enrichment of the first is lower: 0.393 for the first, 0.564 for the second.

First: ALTRSYVREKV [CYP2C8_Y243_I244V]
Second: GEVLVYVEDPA [FLNA_Y319]
The phosphorylation enrichment of the first is lower: 0.42 for the first, 0.798 for the second.

First: LSAPWYLNRIS [HEXA_Y421]
Second: QELRRYLKSGV [MICA_Y194]
The phosphorylation enrichment of the first is lower: 0.562 for the first, 0.765 for the second.

Compared with DTFDPYLDVAL [USP36_Y268_YF], AAYNRYDQERF [CDC73_Y293] is lower in phosphorylation enrichment: 0.641 for the first, 0.401 for the second.

Compared with KHTLSYVDVGT [SDHA_Y629], TDTAAYEERLR [SPTB_Y474_V478L] is lower in phosphorylation enrichment: 0.573 for the first, 0.49 for the second.

First: SMGHRYIEVFK [HNRNPF_Y82]
Second: ASQEEYSAMRD [KRAS_Y64_G60S]
The phosphorylation enrichment of the first is lower: 0.398 for the first, 0.577 for the second.

Going from NSNAAYEESHF [LRIF1_Y714_Q716E] to EEQFFYEKAIL [BCCIP_Y257_E254Q], the phosphorylation enrichment falls from 0.483 to 0.434.

Going from EQMLEYMGQLQ [CFAP45_Y289_E291G] to PFRQWYESHFA [RPS8_Y113_YF], the phosphorylation enrichment rises from 0.436 to 0.827.

First: AGQEGYDRLRP [RAC1_Y64_D63G]
Second: VTAALYGRLFE [BTD_Y536_YF]
The phosphorylation enrichment of the first is lower: 0.43 for the first, 0.535 for the second.

First: GGQVFHNSEYG [FLT4_Y1333_Y1333H]
Second: SMEMKYLEEKN [ZAP70_Y451_G448E]
The phosphorylation enrichment of the first is lower: 0.438 for the first, 0.825 for the second.

First: ITNLLYHVVSW [GBA_Y412_G416S]
Second: SGFESYGSSSS [RPA2_Y9_Y14S]
The phosphorylation enrichment of the first is higher: 8.05 for the first, 0.47 for the second.

Compared with LGSWTYTKTVS [ROS1_Y144], CTSIHYNFMCN [TP53_Y234_T231S_YF] is lower in phosphorylation enrichment: 2.19 for the first, 0.54 for the second.

Going from LEEFQYIGESQ [MSH2_Y856] to MTRDIYETDYY [INSR_Y1185], the phosphorylation enrichment rises from 1.03 to 1.39.

Compared with MANYVYKAGPS [MAML2_Y515_M514V], FLQTDYTSQVS [FRMPD1_Y846] is lower in phosphorylation enrichment: 0.476 for the first, 0.37 for the second.

Compared with HPWPQYTTRAP [FNDC1_Y1281], MCDSHYLESRF [CLK1_Y56_S61F] is higher in phosphorylation enrichment: 0.316 for the first, 0.447 for the second.

Compared with FGGLRCGFGVL [KRTAP20-2_Y13_Y13C_YF], NVADHYGVFKP [ATP6V0D2_Y271_YF] is lower in phosphorylation enrichment: 0.49 for the first, 0.3 for the second.

With DAVCFYRMENA [NPHS2_Y195_I192V_YF] the phosphorylation enrichment was 0.698.

Tested on: c-Abl (mouse)
Assay: as above

Going from WKKKIYEESST [MOCS2_Y170_E168K] to INASGYRVGPA [ACSM1_Y477_I479V], the phosphorylation enrichment falls from 0.761 to 0.615.

First: ALTRSYVREKV [CYP2C8_Y243_I244V]
Second: GEVLVYVEDPA [FLNA_Y319]
The phosphorylation enrichment of the first is lower: 0.617 for the first, 0.917 for the second.

Compared with LSAPWYLNRIS [HEXA_Y421], QELRRYLKSGV [MICA_Y194] is higher in phosphorylation enrichment: 0.447 for the first, 0.659 for the second.

Compared with DTFDPYLDVAL [USP36_Y268_YF], AAYNRYDQERF [CDC73_Y293] is lower in phosphorylation enrichment: 0.833 for the first, 0.512 for the second.

Compared with KHTLSYVDVGT [SDHA_Y629], TDTAAYEERLR [SPTB_Y474_V478L] is lower in phosphorylation enrichment: 0.53 for the first, 0.48 for the second.

Compared with SMGHRYIEVFK [HNRNPF_Y82], ASQEEYSAMRD [KRAS_Y64_G60S] is lower in phosphorylation enrichment: 0.757 for the first, 0.681 for the second.

Going from NSNAAYEESHF [LRIF1_Y714_Q716E] to EEQFFYEKAIL [BCCIP_Y257_E254Q], the phosphorylation enrichment rises from 0.659 to 0.748.

Going from EQMLEYMGQLQ [CFAP45_Y289_E291G] to PFRQWYESHFA [RPS8_Y113_YF], the phosphorylation enrichment rises from 0.762 to 0.764.

Compared with AGQEGYDRLRP [RAC1_Y64_D63G], VTAALYGRLFE [BTD_Y536_YF] is lower in phosphorylation enrichment: 0.654 for the first, 0.626 for the second.

Going from GGQVFHNSEYG [FLT4_Y1333_Y1333H] to SMEMKYLEEKN [ZAP70_Y451_G448E], the phosphorylation enrichment rises from 0.857 to 1.17.

Compared with ITNLLYHVVSW [GBA_Y412_G416S], SGFESYGSSSS [RPA2_Y9_Y14S] is lower in phosphorylation enrichment: 3.22 for the first, 0.633 for the second.

Compared with LGSWTYTKTVS [ROS1_Y144], CTSIHYNFMCN [TP53_Y234_T231S_YF] is lower in phosphorylation enrichment: 0.965 for the first, 0.694 for the second.

First: LEEFQYIGESQ [MSH2_Y856]
Second: MTRDIYETDYY [INSR_Y1185]
The phosphorylation enrichment of the first is higher: 1.25 for the first, 0.712 for the second.

Going from MANYVYKAGPS [MAML2_Y515_M514V] to FLQTDYTSQVS [FRMPD1_Y846], the phosphorylation enrichment falls from 0.815 to 0.565.

Compared with HPWPQYTTRAP [FNDC1_Y1281], MCDSHYLESRF [CLK1_Y56_S61F] is lower in phosphorylation enrichment: 0.697 for the first, 0.608 for the second.

Going from FGGLRCGFGVL [KRTAP20-2_Y13_Y13C_YF] to NVADHYGVFKP [ATP6V0D2_Y271_YF], the phosphorylation enrichment falls from 0.673 to 0.538.

Work on DAVCFYRMENA [NPHS2_Y195_I192V_YF] yielded a phosphorylation enrichment of 0.882.
